Assay results published in the nanobody polyreactivity screen of Harvey et al. (2022).

assay: yeast display, Sf9 membrane polyspecificity reagent, FACS + sequencing; frameworks hold sequencing errors
Procedure, shortened: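 Using colony PCR, genes from sorted yeast display clones were amplified, then sequenced on MiSeq at 2 × 250 and filtered by CDR length. The clones had been stained with 10% biotinylated, detergent-solubilized Sf9 membrane reagent for 1 hour at 4 °C and sorted by FACS into low and high (top ~1%) gates on anti-HA and streptavidin fluorescence. Polyreactivity labels come from the gate of origin.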

Row | Sequence | polyreactivity (PSR sort gate)
1 | QDQLVESGGGLVQAGGSLRLICAASGLIFGFNTMACYRQAPGKESEFVAAINGSDGSTYADSVKGRFTISRDNAKNTVYLQMNSLKPEDTAVYYCAARYGSPKEYTYADMDYWGQGTQVTVSS | low polyreactivity
2 | QDQLVESGGGLVQAGGSLRLICAASGRTFGSYTMGWYRQAPGKERELVAAITSGGRTNYADSVKGRFTISRDNAKNTVYLQMNSLKPEDTAVYYCAAGWRGGRYRYFAYDYWGQGTQVTVSS | high polyreactivity
3 | QDQLVESGGGLVQAGGSLRLICAASGSIFTFYDMGWYRQAAGNERELVAAISSGGSTTYADSVKGRFTISRDNAKNTVYLQMNSLKPEDTAFYYCAADSQPYLYPVEYDYWRQGTQVTVSS | low polyreactivity
4 | QDQLVESGGGLVQAGGSLRLICAASGSNFGYYGMGWYRQAPGKEREFVAAITFSGGSTYYADSVKGRFTISRDNAKNTVYLQMNSLKPEDTAVYYFAAVYYGPYTYRHKMYYWGQGTQVTVSS | low polyreactivity
5 | QDQLVESGGGLVQAGGSLRLSCAASAFTFGRNAKGWYRQATGKERELVATITWSGGSTYYADSVKGRFTISRDNAKNTVYLQMNSLKPEDTAVYYCAKQRRYWGQPSRAYEFNYWGQGTQVTVSS | high polyreactivity
6 | QDQLVESGGGLVQAGGSLRLSCAASAIIFYYYAMGSYRQAPGKERELVAAISSSGGRTRYADSVKGRVTISRDNAKNTVYLLMNRLKPEDTAVYYCAAEFIRGYGESYDYWGQGTQVTVSS | low polyreactivity
7 | QDQLVESGGGLVQAGGSLRLSCAASALTFVRYAMGWYRQAPGKERELVAAISSGGSTNYADSVKGSFTISRDNAKNTVYLQMNSLKPEDSAVYYCAAVRYRYPHTMYYWGLGTQVTVSS | high polyreactivity
8 | QDQLVESGGGLVQAGGSLRLSCAASCFTSLIYAMGWYRQAPGKERELVASITWGGGSTYADSVKGRFTISRDNAKNTVSLLMNSLKPEDTAVYYCASLYWWYPFNYWGQGTQVTVSS | low polyreactivity
9 | QDQLVESGGGLVQAGGSLRLSCAASGFIFNKNAMGWYRQAPGKERELVAAITFGGGTTYYADSVKGRFTISRDNAKNTVYLQMNSLKPEDTAVYYCAKRYWRHPVFYLYDYWGQGTQVTVSS | high polyreactivity
10 | QDQLVESGGGLVQAGGSLRLSCAASGFIFRFNARGWYRQAPGKEREVVAVIRWSSGSTYYADSVKGRFTISRDNAKNTVYLQMNSLKPEDTAVYYCAAVDDDYSIVWYYYWGQGTQVTVSS | low polyreactivity
11 | QDQLVESGGGLVQAGGSLRLSCAASGFIFYDNAMGWYRQAPGKERELVAAISAIGGSTYYADSVKGRFTISRDNAKNTVYLQMNSLKPEDTAVYYCAVPEILDPKYQNDYWGQGTQVTVSS | low polyreactivity
12 | QDQLVESGGGLVQAGGSLRLSCAASGFMFSYYAMGWYRQAPGKARELVAAMTSNGGITYYADSVKGRITISRDKAKNTVYLQMNSLKPEDTAVYYCNAYYTSTSYDYWGQGTQVTVSS | high polyreactivity
13 | QDQLVESGGGLVQAGGSLRLSCAASGFNFRYYAMGWYRQAPGKERELVAAISSGGRTSYADSVKGRFTISRDNAKNTVYLQMNSLKPEDTAVYYCAADRWRGLFYYGNDYWGQGTQVTVSS | high polyreactivity
14 | QDQLVESGGGLVQAGGSLRLSCAASGFTFQYYAMGWYRQAPGKERELVAAISRRGGRTDYADSVKGRFTISRDNAKNTVYLQINSLKPEDTEVYYCARDPGAFEYSGQGTQVTVSS | high polyreactivity
15 | QDQLVESGGGLVQAGGSLRLSCAASGFTFRSNAMGWYRQAPGKERELVAAISRTGGSTYYADSVKGRFTISRDNAKNTVYLQMNSLKPEETAVYYCNTVYGKSHYGQAMDSWGQGTQVTVSS | high polyreactivity
16 | QDQLVESGGGLVQAGGSLRLSCAASGFTFSYYTMGWYRHAPGKERELVAAISSTGVSTYYADSVKGRFTISRDNAKNTVYLQMNSLKPEDTAVYYCAADYYGVYEYYYWGQGTQVTVSS | high polyreactivity
17 | QDQLVESGGGLVQAGGSLRLSCAASGFTFYRNAMGWYRQAPGKERELVAAISRGGRTYYADSVKGRFTISRDNAKNTVYLQMNSLNPEDTAVYYCAVGYSGYVSSMDYWGQGTQVTVSS | high polyreactivity
